Data reported in patent US20050221422.

T1: 11-GalNAc-HP-Cy5 (VPSTPPTPSPS(GalNAc)TPPTPSPS), human IgA1 hinge peptide with GalNAc on the 11th residue, Cy5-labelled
T1 chain: VPSTPPTPSPSTPPTPSPS

T2: 4-GalNAc-HP (VPST(GalNAc)PPTPSPSTPPTPSPS), human IgA1 hinge peptide with GalNAc on the 4th residue
T2 chain: VPSTPPTPSPSTPPTPSPS

B1: C1Gal-T2 (entire ORF expressed in LSC cells, LSC-C1Gal-T2 enzyme source) (protein)
chain: MLSESSSFLKGVMLGSIFCALITMLGHIRIGHGNRMHHHEHHHLQAPNKEDILKISEDERMELSKSFRVYCIILVKPKDVSLWAAVKETWTKHCDKAEFFSSENVKVFESINMDTNDMWLMMRKAYKYAFDKYRDQYNWFFLARPTTFAIIENLKYFLLKKDPSQPFYLGHTIKSGDLEYVGMEGGIVLSVESMKRLNSLLNIPEKCPEQGGMIWKISEDKQLAVCLKYAGVFAENAEDADGKDVFNTKSVGLSIKEAMTYHPNQVVEGCCSDMAVTFNGLTPNQMHVMMYGVYRLRAFGHIFNDALVFLPPNGSDND
B2: FLAG tagged C1Gal-T3 fusion protein (C1Gal-T3 recombinant enzyme from pFLAG-C1Gal-T3, secreted by COS-1 cells) (protein)
chain: HIRHRGQTQDHEHHHLRPPNRNDFLNTSKVILLELSKSIRVFCIIFGESEDESYWAVLKETWTKHCDKAELYDTKNDNLFNIESNDRWVQMRTAYKYVFEKYGDNYNWFFLALPTTFAVIENLKYLLFTRDASQPFYLGHTVIFGDLEYVTVEGGIVLSRELMKRLNRLLDNSETCADQSVIWKLSEDKQLAICLKYAGVHAENAEDYEGRDVFNTKPIAQLIEEALSNNPQQVVEGCCSDMAITFNGLTPQKMEVMMYGLYRLRAFGHYFNDTLVFLPPVGSEND

How the values were obtained:
[1] = target: T1, 11-GalNAc-HP-Cy5 …
[2] = target: various GalNAc α1-peptides
[3] = target: T2, 4-GalNAc-HP …

Row | Protein | HPLC of the galactose transfer reaction product [1] | β1,3-galactosidase treatment of the reaction product, HPLC [1] | galactosyltransferase activity on acceptor substrates [2] | galactose transferring activity [3]
1 | B1 | the reaction product appeared as a new peak at 28.8 minutes | C1Gal-T2 was verified in vitro to be a core 1 synthetase, by which galactose is transferred to the nonreducing terminal of GalNAc α1-peptide through the β1,3 bond | the above experiment was repeated using various GalNAc α1-peptides as acceptor substrates. This resulted in similar reactions to that with pNp-α-GalNAc | –
2 | B2 | – | – | – | galactose transferring activity could be confirmed for 4-GalNAc-HP
